Experimental data from patent US7541034 (US Dept. of Health and Human Services, dated 2009).

Legend:
[1] = biological target: T1, CD22 (human, on CA46, Daudi and other human B-cell lines and on fresh patient leukemia cells) (human, UniProt P20273 20-847); assay: competition of unlabelled IgG against 125I-labelled RFB4 IgG on Daudi cells, 4 C, gamma counting
T1 construct: whole, on cells; also called CD22 antigen
T1 sequence (looked up): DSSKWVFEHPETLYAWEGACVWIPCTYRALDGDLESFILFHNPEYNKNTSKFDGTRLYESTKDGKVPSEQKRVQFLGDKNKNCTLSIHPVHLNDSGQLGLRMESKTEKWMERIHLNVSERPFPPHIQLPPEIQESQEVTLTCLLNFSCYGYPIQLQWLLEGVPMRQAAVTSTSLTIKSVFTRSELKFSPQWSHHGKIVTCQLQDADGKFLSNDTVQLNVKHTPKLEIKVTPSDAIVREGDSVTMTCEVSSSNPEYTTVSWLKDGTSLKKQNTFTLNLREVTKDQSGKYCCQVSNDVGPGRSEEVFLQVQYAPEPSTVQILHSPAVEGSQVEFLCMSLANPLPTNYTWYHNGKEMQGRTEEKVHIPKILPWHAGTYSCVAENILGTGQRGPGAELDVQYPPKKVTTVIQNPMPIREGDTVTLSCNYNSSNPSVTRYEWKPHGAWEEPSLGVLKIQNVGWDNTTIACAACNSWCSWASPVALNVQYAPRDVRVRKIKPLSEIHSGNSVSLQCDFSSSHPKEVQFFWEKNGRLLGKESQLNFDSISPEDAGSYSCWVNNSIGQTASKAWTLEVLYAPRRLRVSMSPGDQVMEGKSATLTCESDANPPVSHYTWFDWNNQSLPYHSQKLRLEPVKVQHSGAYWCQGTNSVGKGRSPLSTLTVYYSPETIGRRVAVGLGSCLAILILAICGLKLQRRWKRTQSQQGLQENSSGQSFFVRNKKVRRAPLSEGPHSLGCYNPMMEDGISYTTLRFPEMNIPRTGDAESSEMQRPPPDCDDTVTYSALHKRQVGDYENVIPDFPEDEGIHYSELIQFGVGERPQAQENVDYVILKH

[2] = biological target: T1, CD22 (human, on CA46, Daudi and other …); assay: competition of unlabelled IgG against 125I-labelled RFB4 IgG on CA46 cells, 4 C, gamma counting
[3] = biological target: T2, murine CD22 (murine, UniProt P35329 22-708); assay: not described (told as the reason for the choice of monkeys)
T2 sequence (looked up): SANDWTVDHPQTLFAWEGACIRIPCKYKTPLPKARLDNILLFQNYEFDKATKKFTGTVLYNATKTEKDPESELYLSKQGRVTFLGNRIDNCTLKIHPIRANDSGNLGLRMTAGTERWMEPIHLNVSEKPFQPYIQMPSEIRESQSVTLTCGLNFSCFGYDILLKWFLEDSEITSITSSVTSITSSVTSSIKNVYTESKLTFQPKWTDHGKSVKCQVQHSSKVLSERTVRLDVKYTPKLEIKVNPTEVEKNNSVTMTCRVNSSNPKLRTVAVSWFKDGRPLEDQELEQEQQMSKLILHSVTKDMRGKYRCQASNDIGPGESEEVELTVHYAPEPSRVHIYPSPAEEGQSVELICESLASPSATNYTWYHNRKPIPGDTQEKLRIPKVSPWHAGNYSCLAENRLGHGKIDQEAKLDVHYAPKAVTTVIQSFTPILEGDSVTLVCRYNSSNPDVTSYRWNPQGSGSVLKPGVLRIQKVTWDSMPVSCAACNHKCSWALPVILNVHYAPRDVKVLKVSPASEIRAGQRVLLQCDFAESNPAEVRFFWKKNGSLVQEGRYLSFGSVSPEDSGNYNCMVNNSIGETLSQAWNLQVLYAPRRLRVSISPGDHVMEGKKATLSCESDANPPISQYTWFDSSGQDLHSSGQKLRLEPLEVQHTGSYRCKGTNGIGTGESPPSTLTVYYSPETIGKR

B1: RFB4 IgG (antibody, V domains shown)
VH: EVQLVESGGGLVKPGGSLKLSCAASGFAFSIYDMSWVRQTPEKRLEWVAYISSGGGTTYYPDTVKGRFTISRDNAKNTLYLQMSSLKSEDTAMYYCARHSGYGSSYGVLFAYWGQGTLVTVSA
VL: DIQMTQTTSSLSASLGDRVTISCRASQDISNYLNWYQQKPDGTVKLLIYYTSILHSGVPSRFSGSGSGTDYSLTISNLEQEDFATYFCQQGNTLPWTFGGGTKLEIK
notes: also called RFB4 mAb; native RFB4 IgG
With B1 the IC50 [1] was 10 nM, the IC50 [2] was 4.5 nM and the binding result [3] was “no binding”.
